Laboratory results reported in article PMC5366330, “The Activity of a Hexameric M17 Metallo-Aminopeptidase Is Associated With Survival of Mycobacterium tuberculosis” (Frontiers in Microbiology, 2017).

Columns and labels:
[1] = biological target: T1, MtLAP (leucine aminopeptidase of M. tuberculosis, Rv2213) (Mycobacterium tuberculosis, UniProt P9WHT3); experiment: biochemical
T1 construct: gene pepA

[2] = system: CSCC[C@H](N)C(=O)Nc1ccc2c(C)cc(=O)oc2c1; experiment: purified protein; settings: divalent metal (Ni2+, […] NiSO4 in the assay)
[3] = system: Cc1cc(=O)oc2cc(NC(=O)[C@@H](N)CC(C)C)ccc12; experiment: purified protein; settings: divalent metal (Ni2+, […] NiSO4 in the assay)
[4] = system: Cc1cc(=O)oc2cc(NC(=O)[C@@H]3CCCN3)ccc12; experiment: purified protein; settings: divalent metal (Ni2+, […] NiSO4 in the assay)
[5] = biological target: the molecule itself; experiment: AUC + SEC

Molecule: CC(C)C[C@H](NC(=O)[C@@H](O)[C@H](N)Cc1ccccc1)C(=O)O [bestatin]
- IC50 [1]: 53.8 nM

Molecule: MtLAP (leucine aminopeptidase of M. tuberculosis, Rv2213) (Mycobacterium tuberculosis H37Rv)
- Km [2]: 61.8 ± 4.4 µM
- Km [3]: 69.4 ± 3.6 µM
- Km [4]: 344.8 ± 49.2 µM

B1: leucine aminopeptidase of M. tuberculosis (MtLAP) (enzyme)
chain: MTTEPGYLSPSVAVATSMPKRGVGAAVLIVPVVSTGEEDRPGAVVASAEPFLRADTVAEIEAGLRALDATGASDQVHRLAVPSLPVGSVLTVGLGKPRREWPADTIRCAAGVAARALNSSEAVITTLAELPGDGICSATVEGLILGSYRFSAFRSDKTAPKDAGLRKITVLCCAKDAKKRALHGAAVATAVATARDLVNTPPSHLFPAEFAKRAKTLSESVGLDVEVIDEKALKKAGYGGVIGVGQGSSRPPRLVRLIHRGSRLAKNPQKAKKVALVGKGITFDTGGISIKPAASMHHMTSDMGGAAAVIATVTLAARLRLPIDVIATVPMAENMPSATAQRPGDVLTQYGGTTVEVLNTDAEGRLILADAIVRACEDKPDYLIETSTLTGAQTVALGTRIPGVMGSDEFRDRVAAISQRVGENGWPMPLPDDLKDDLKSTVADLANVSGQRFAGMLVAGVFLREFVAESVDWAHIDVAGPAYNTGSAWGYTPKGATGVPTRTMFAVLEDIAKNG
notes: also called M. tuberculosis LAP; Rv2213
- stoichiometry N [5]: 6
